Test results as given in patent US20040138119.

B1: His6-pro-Caspase-9 (protein)
chain: HHHHHHMDEADRRLLRRCRLRLVEELQVDQLWDALLSRELFRPHMIEDIQRAGSGSRRDQARQLIIDLETRGSQALPLFISCLEDTGQDMLASFLRTNRQAAKLSKPTLENLTPVVLRPEIRKPEVLRPETPRPVDIGSGGFGDVGALESLRGNADLAYILSMEPCGHCLIINNVNFCRESGLRTRTGSNIDCEKLRRRFSSLHFMVEVKGDLTAKKMVLALLELAQQDHGALDCCVVVILSHGCQASHLQFPGAVYGTDGCPVSVEKIVNIFNGTSCPSLGGKPKLFFIQACGGEQKDHGFEVASTSPEDESPGSNPEPDATPFQEGLRTFDQLDAISSLPTPSDIFVSYSTFPGFVSWRDPKSGSWYVETLDDIFEQWAHSEDLQSLLLRVANAVSVKGIYKQMPGCFNFLRKKLFFKTS
B2: recombinant active Caspase-3 (protein)
chain: SGISLDNSYKMDYPEMGLCIIINNKNFHKSTGMTSRSGTDVDAANLRETFRNLKYEVRNKNDLTREEIVELMRDVSKEDHSKRSSFVCVLLSHGEEGIIFGTNGPVDLKKITNFFRGDRCRSLTGKPKLFIIQACRGTELDCGIETDSGVDDDMACHKIPVEADFLYAYSTAPGYYSWRNSKDGSWFIQSLCAMLKQYADKLEFMHILTRVNRKVATEFESFSFDATFHAKKQIPCIVSMLTKELYFYH

How the values were obtained:
[1] = biological target: combination of His6-HBXIP and Survivin
[2] = biological target: purified recombinant Survivin (untagged)

Protein | Caspase-9 activity (cleavage of Ac-LEHD-AFC) and pro-Caspase-9 processing after Apaf1, Cytochrome C and dATP (His6-HBXIP) | Caspase-9 activity (cleavage of Ac-LEHD-AFC) and pro-Caspase-9 processing after Apaf1, Cytochrome C and dATP [1] | Caspase-9 activity (cleavage of Ac-LEHD-AFC) and pro-Caspase-9 processing after Apaf1, Cytochrome C and dATP [2] | Caspase-3 protease activity, hydrolysis of Ac-DEVD-AFC [2]
B1 | Addition of either recombinant purified Survivin or HBXIP individually was ineffective at blocking Apaf1-mediated activation and proteolytic processing of pro-Caspase-9 in vitro. | the combination of Survivin and HBXIP effectively suppressed generation of Caspase-9 protease activity | Addition of either recombinant purified Survivin or HBXIP individually was ineffective at blocking Apaf1-mediated activation and proteolytic processing of pro-Caspase-9 in vitro. | 
B2 |  |  |  | Even at a 1000-fold molar excess of Survivin relative to active Caspase-3, essentially no inhibition was observed.
